The values below come from patent US20130251640A1 (METHODIST HOSPITAL SYSTEM, published 2013).

What all share (assay): cell-based or functional assay
The target of test [1] is T1, Cathepsin E (purchased from Calbiochem, EMD Bioscience).
T1 sequence (P14091 whole entry, species assumed, looked up): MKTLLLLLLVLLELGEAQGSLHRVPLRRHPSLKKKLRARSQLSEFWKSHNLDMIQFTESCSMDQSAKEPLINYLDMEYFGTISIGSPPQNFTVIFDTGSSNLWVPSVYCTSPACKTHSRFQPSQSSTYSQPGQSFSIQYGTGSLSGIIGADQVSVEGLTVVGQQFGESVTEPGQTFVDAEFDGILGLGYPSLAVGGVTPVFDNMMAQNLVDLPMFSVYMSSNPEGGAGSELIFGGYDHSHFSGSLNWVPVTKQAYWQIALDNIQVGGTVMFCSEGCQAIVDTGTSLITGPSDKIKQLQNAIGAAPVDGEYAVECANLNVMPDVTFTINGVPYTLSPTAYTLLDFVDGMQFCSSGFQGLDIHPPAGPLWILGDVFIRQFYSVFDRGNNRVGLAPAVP

In test [2] the target is Cathepsin S (purchased from Calbiochem, EMD Bioscience).
The target in test [3] is Cathepsin B (purchased from Calbiochem, EMD Bioscience).

Non-standard residues stand in square brackets, D forms with d. *: point of attachment. Dnp = O=[N+]([O-])c1ccc(*)c([N+](=O)[O-])c1; Mca = COc1ccc2c(CC(=O)*)cc(=O)oc2c1

B1: substrate b, Mca-Gly-Pro-Ile-Leu-Phe**Phe-Arg-Leu-Gly-Lys(Dnp)-DArg-CONH2 (peptide)
peptide: Mca-GPILFFRLGK(Dnp)[dR]-NH2
SMILES: CC[C@H](C)[C@H](NC(=O)[C@@H]1CCCN1C(=O)CNC(=O)Cc1cc(=O)oc2cc(OC)ccc12)C(=O)N[C@@H](CC(C)C)C(=O)N[C@@H](Cc1ccccc1)C(=O)N[C@@H](Cc1ccccc1)C(=O)N[C@@H](CCCNC(=N)N)C(=O)N[C@@H](CC(C)C)C(=O)NCC(=O)N[C@@H](CCCCNc1ccc([N+](=O)[O-])cc1[N+](=O)[O-])C(=O)N[C@H](CCCNC(=N)N)C(N)=O
For the molecule B1, in test [1], the “net fluorescence signal ratio (Cath E/Cath D) immediately after incubation” value is 1.6 fold.

B2: substrate a, Mca-Gly-Ser-Pro-Ala-Phe**Leu-Ala-Lys(Dnp)-DArg-CONH2 (peptide)
peptide: Mca-GSPAFLAK(Dnp)[dR]-NH2
SMILES: COc1ccc2c(CC(=O)NCC(=O)N[C@@H](CO)C(=O)N3CCC[C@H]3C(=O)N[C@@H](C)C(=O)N[C@@H](Cc3ccccc3)C(=O)N[C@@H](CC(C)C)C(=O)N[C@@H](C)C(=O)N[C@@H](CCCCNc3ccc([N+](=O)[O-])cc3[N+](=O)[O-])C(=O)N[C@H](CCCNC(=N)N)C(N)=O)cc(=O)oc2c1
Turning to B2, in test [1], the “net fluorescence signal ratio (Cath E/Cath D) at 10 minutes” value was determined as 4.5 fold, the “net fluorescence signal ratio (Cath E/Cath D) at 45 minutes” value came out at 1.6 fold and the “net fluorescence signal ratio (Cath E/Cath D) at the initial time point” value came to 17.9 fold.

B3: substrate e, Mca-Ala-Gly-Phe-Ser-Leu**Pro-Ala-Lys(Dnp)-D-Arg-CONH2 (peptide)
peptide: Mca-AGFSLPAK(Dnp)[dR]-NH2
SMILES: COc1ccc2c(CC(=O)N[C@@H](C)C(=O)NCC(=O)N[C@@H](Cc3ccccc3)C(=O)N[C@@H](CO)C(=O)N[C@@H](CC(C)C)C(=O)N3CCC[C@H]3C(=O)N[C@@H](C)C(=O)N[C@@H](CCCCNc3ccc([N+](=O)[O-])cc3[N+](=O)[O-])C(=O)N[C@H](CCCNC(=N)N)C(N)=O)cc(=O)oc2c1
On to B3, for which the “net fluorescence signal ratio (Cath E/Cath D) at 1 minute” value in test [1] was 265 fold. For the same molecule, the “fluorescence signal increase relative to that observed with Cath E, 90 minutes” value in test [2] and in test [3] was below 15% in each case.

B4: substrate d, Mca-Ala-Gly-Phe-Ser-Leu**Gly-Pro-Lys(Dnp)-DArg-CONH2 (peptide)
peptide: Mca-AGFSLGPK(Dnp)[dR]-NH2
SMILES: COc1ccc2c(CC(=O)N[C@@H](C)C(=O)NCC(=O)N[C@@H](Cc3ccccc3)C(=O)N[C@@H](CO)C(=O)N[C@@H](CC(C)C)C(=O)NCC(=O)N3CCC[C@H]3C(=O)N[C@@H](CCCCNc3ccc([N+](=O)[O-])cc3[N+](=O)[O-])C(=O)N[C@H](CCCNC(=N)N)C(N)=O)cc(=O)oc2c1
B4: in test [1], the “net fluorescence signal ratio (Cath E/Cath D) at 10 minutes” value turned out to be 4 fold, the “net fluorescence signal ratio (Cath E/Cath D) at 45 minutes” value worked out at 2.3 fold and the “net fluorescence signal ratio (Cath E/Cath D) at the initial time point” value turned out to be 12 fold.

B5: substrate c, Mca-Gly-Pro-Ile-Leu-Phe**Phe-Arg-Leu-Lys(Dnp)-DArg-CONH2 (peptide)
peptide: Mca-GPILFFRLK(Dnp)[dR]-NH2
SMILES: CC[C@H](C)[C@H](NC(=O)[C@@H]1CCCN1C(=O)CNC(=O)Cc1cc(=O)oc2cc(OC)ccc12)C(=O)N[C@@H](CC(C)C)C(=O)N[C@@H](Cc1ccccc1)C(=O)N[C@@H](Cc1ccccc1)C(=O)N[C@@H](CCCNC(=N)N)C(=O)N[C@@H](CC(C)C)C(=O)N[C@@H](CCCCNc1ccc([N+](=O)[O-])cc1[N+](=O)[O-])C(=O)N[C@H](CCCNC(=N)N)C(N)=O
Consider B5, for which the “net fluorescence signal ratio (Cath E/Cath D) immediately after incubation” value in test [1] is 1.5 fold.
